Tests used:
[1] = biological target: XIAP linker–BIR2–BIR3 protein (residues 120–356) (human) (UniProt P98170); test: fluorescence polarisation
[2] = biological target: XIAP BIR3-only protein (residues 241–356) (human) (UniProt P98170); test: fluorescence polarisation
[3] = biological target: XIAP BIR2-only protein (residues 120–240) (human) (UniProt P98170); test: fluorescence polarisation
[4] = test system: MDA-MB-231 cancer cell line; test: Apoptosis by annexin V/propodium iodide flow cytometry; assay type: cell-based, human; conditions: MDA-MB-231, 24 h, annexin V/PI

| Molecule | Ki [1] | Ki [2] | Ki [3] | induction of apoptosis [4] |
| --- | --- | --- | --- | --- |
| compound 2 (monovalent Smac mimetic, N-methyl-AKPF) (peptide) | 0.9 µM | 0.086 µM | 11.7 µM |  |
| COC(=O)CC[C@H](NC(=O)[C@H](CC(=O)OC)NC(=O)OCc1ccccc1)C(=O)N[C@H](C(=O)N[C@@H](CC(=O)OC)C(=O)CF)C(C)C [Z-DEVD-FMK] |  |  |  | no effect on cells |

Reference: publication PMC2784912 (Biochemistry, 2008)
